Source: paper PMC9342713

Target: T1, DitR (Stenotrophomonas maltophilia K279a) (UniProt B2FL17)
T1 sequence: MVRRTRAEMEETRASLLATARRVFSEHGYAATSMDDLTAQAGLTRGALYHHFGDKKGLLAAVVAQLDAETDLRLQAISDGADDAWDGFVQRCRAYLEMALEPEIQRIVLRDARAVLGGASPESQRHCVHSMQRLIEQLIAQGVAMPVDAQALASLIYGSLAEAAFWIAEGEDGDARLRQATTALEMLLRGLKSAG
Assay: DNase I footprinting

Sequence	binding
GGGGGCGGCGAACAGGTCGCGGTAGGGGGTGGCCATCGGGATCTCCAGGGCAGCGGCTTGCCTGGCGCTCCCGGCGCCACGACAATACATACAGAGCGTATGAATAAGAGCCTACATTCATACGCGTCGTATGTAAATAATCATGCACTGCGTATGTAAGGAGCTCCGGATGGTCCGTCGCACCCGCGCCGAAATGGAAGAAAC (double strand) [mfsBC promoter fragment, 204 bp, Box II]	binds
GGGGGCGGCGAACAGGTCGCGGTAGGGGGTGGCCATCGGGATCTCCAGGGCAGCGGCTTGCCTGGCGCTCCCGGCGCCACGACAATACATACAGAGCGTATGAATAAGAGCCTACATTCATACGCGTCGTATGTAAATAATCATGCACTGCGTATGTAAGGAGCTCCGGATGGTCCGTCGCACCCGCGCCGAAATGGAAGAAAC (double strand) [mfsBC promoter fragment, 204 bp, Box I]	binds
